# Laboratory results taken from paper PMC8105298.
# Molecular target: p62 (UniProt Q13501)
# Experiment: co-IP of stathmin-GFP with Flag-p62
# Conditions: reference: wild type stathmin-GFP; sites S63
substance,measurement,value
stathmin (from UniProt P16949) S63A stathmin-GFP,binding against the reference,weaker
